The term Kd denotes the equilibrium constant for the complex coming apart. Read a high Kd as weaker binding.

Experiment [1] deals with T1, GST-Tvactin (T. vaginalis, UniProt A0A8U0WPZ0 1-376).
T1 construct: The same construct stands as GST-Tvactin on beads (pull-down), as G-actin (in G-buffer) and as F-actin (polymer, in F-buffer); the assays tell these apart; No removal of GST is described; also called GST fused-α-actin; G-actin; source: polymerized to F-actin in F-buffer), purified on glutathione-conjugated sepharose beads
Description: ELISA; solid-phase binding: 2.5 μM F-actin in F-buffer coated on a 96-well microplate; His-TvFACPα or His-△237 at 0-80 μM, 4°C overnight; anti-6×His detection, OD450; Scatchard plots. To be noted: both partners purified. In general terms: An ELISA detects its analyte on a solid surface through an enzyme-linked reagent.

Experiment [2] deals with T1, GST-Tvactin. Description: ELISA; solid-phase binding: 2.5 μM G-actin in G-buffer coated on a 96-well microplate; His-TvFACPα or His-△237 at 0-80 μM, 4°C overnight; anti-6×His detection, OD450; Scatchard plots. To be noted: both partners purified.
Experiment [3] has as its target T2, α-actin, endogenous (T. vaginalis) (T. vaginalis (endogenous in TH17 …, UniProt A0A8U0WPZ0 1-376)).
T2 construct: α-actin of Trichomonas vaginalis detected by an anti-α-actin antibody as a 42-kDa band; In the cell fractionation it stands as F-actin in the 100,000× g pellet; also called 42-kDa α-actin; F-actin
Description: co-sedimentation; actin biochemical fractionation of trophozoite lysates (Cytoskeleton Inc kit): 100,000× g for 1 hr, F-actin and associated proteins in the pellet, G-actin in the supernatant; western blotting; non-transgenic and transgenic TH17, flagellate and amoeboid forms, DMSO or TBB treatment. To be noted: partners not purified. For orientation: Immunoblotting shows a protein as a band on a membrane.

B1: His-TvFACPα (natural protein)
chain: MSESENIKIIKTFLANAPPGEYEQCTAALRSIVNDEDLINRARSETLKTWAEEECIVVDVEDHKVIICKEACQRDGIYVDPVTSSLITYDFESRIATPIGDQANMSDFAKELQEELTAYAKNAYKENAAAGVYDTNNGIVIVLRGSSISLKNFRTGKTVAKYTLSKSGSLEGKIVSIQHFFEKGNAVCQHDGDCNTTCSFGDAKSVVKAIRTFEDEWLADYKTTLEKIGTNVLFQLRRKFPYSKQKINWQQEITVGGGMKC
notes: also called His-TvFACPα wild type; Wt; source: recombinant from pET28-His-TvFACPα, purified to homogeneity (protocol of the supplier, QIAGEN)
Consider B1, for which the dissociation constant (Kd) with GST-Tvactin [1] stood at 8.36 µM; in the experiment with GST-Tvactin [2], 4.45 µM.

B2: HA-TvFACPα (natural protein)
chain: MSESENIKIIKTFLANAPPGEYEQCTAALRSIVNDEDLINRARSETLKTWAEEECIVVDVEDHKVIICKEACQRDGIYVDPVTSSLITYDFESRIATPIGDQANMSDFAKELQEELTAYAKNAYKENAAAGVYDTNNGIVIVLRGSSISLKNFRTGKTVAKYTLSKSGSLEGKIVSIQHFFEKGNAVCQHDGDCNTTCSFGDAKSVVKAIRTFEDEWLADYKTTLEKIGTNVLFQLRRKFPYSKQKINWQQEITVGGGMKC
notes: also called HA-TvFACPα wild type; source: T. vaginalis TH17 trophozoites, transgenic (Flp-HA-TvFACPα), in lysate
As for B2, the “co-sedimented with F-actin, fold of the endogenous form of the non-transfectant” value in experiment [3] is ~2 fold.

Source of the values: paper doi:10.1101/2022.06.09.495492, “An atypical F-actin capping protein modulates cytoskeleton behaviors crucial to colonization of Trichomonas vaginalis” (bioRxiv, 2022).
